US10391048B2, “Recombinant high-stability superoxide dismutase and application thereof” (Hangzhou Redox Pharmatech Co., Ltd., priority 2016, dated 2019)
Several values for one entry are separate records, joined by “and”; a condition that tells them apart may be missing. Identical values can stand only once. Marks after values point to notes of the source that are not given here.

Assays:
[1] = system: LPS-induced zebrafish inflammation model; experiment: anti-inflammatory effect on LPS-induced inflammation; details: 5 hours; for numbers of neutrophils (mean ± SE): model control 17.8
Description: The zebrafish inflammation model was established by treatment of transgenic neutrophil fluorescent zebrafish through LPS injection.
The zebrafishes were randomly selected and put in the six-well plate, 30 per well. […] The normal control group and model control group were set at the same time. […] Image analysis was performed with Nikon NIS-Elements D3.10 advanced image processing software, the number of neutrophils (N) in zebrafish was calculated, and quantitatively analyzed. The formula of the rate of inflammation resolution was as follows:

[2] = system: copper sulfate induced zebrafish inflammation model; experiment: anti-inflammatory effect on copper sulfate-induced inflammation; type: in vivo; design: numbers of neutrophils (mean ± SE): dose or concentration left out as unconfirmed; details: 5 hours; for Inflammation resolution rate (%): copper sulfate
Description: The specific method was described by d'Alencon et al., BMCBiology.
The images were analyzed by Nikon NIS-ElementsD3.10 advanced image processing software.

[3] = system: tail amputation injury zebrafish inflammation; experiment: anti-inflammatory effect on inflammation of tail amputation injury; details: 5 hours
Description: Model making: The model of zebrafish inflammation was established by mechanical amputation of tail fins of transgenic neutrophil fluorescent zebrafish.
The transgenic neutrophil fluorescent zebrafish were randomly selected and put in the six-well plate after mechanical amputation of tail fins, 30 per well. […] The normal control group and model control group were set at the same time. […] Image analysis was performed with Nikon NIS-Elements D3.10 advanced image processing software, the number of neutrophils (N) in zebrafish was calculated, and quantitatively analyzed. The formula of the rate of inflammation resolution was as follows:

[4] = system: TNBS-induced colonitis zebrafish model; experiment: pathological analysis of intestinal tract tissue; type: in vivo; details: 15 μg/mL, 48 hours
Excerpt: The fixed zebrafish was observed under the microscope for the colonic tissue and photographed for histopathological analysis, as described in the experimental results.

[5] = stability of SOD at different pH; type: physicochemical; details: pH 12
Description: (§1) The enzyme activity of SOD was determined by pyrogallol autoxidation method.

[6] = 1 h
Description: as §1

[7] = system: TNBS-induced colonitis zebrafish model; experiment: inflammation resolution of TNBS-induced colonitis (intestinal neutrophils); details: intestinal tract, 48 hours, model control 9.4, normal control 1.6
Description: Transgenic neutrophil fluorescent zebrafish of 3 days after fertilization was used to establish a zebrafish colonitis model after incubation for 48 h in water for fish containing a final concentration of 4.5 μM TNBS.
Model control group: TNBS-induced colonitis zebrafish model (model 2);
Positive control group: prednisone was added to water for fish at a final concentration of 15 μg/mL;
30 transgenic neutrophil fluorescent zebrafishes were treated in each experiment group for 48 hours;

zebrafish [8] = experiment: maximum non-lethal concentration (MNLC), 48 h treatment; type: in vivo; details: for Death rate (%) / Death (tail): 48 hours; for Death (tail): 30 zebrafish
Description: 30 zebrafishes were treated in each experiment group;
During the experiment course, count dead zebrafish every day and remove dead zebrafish;

zebrafish [9] = experiment: maximum non-lethal concentration (MNLC), 5 h treatment; type: in vivo; details: 2000 μg/mL for 5 hours
Description: 30 zebrafishes were treated in each experiment group. During the course of the experiment, the dead zebrafishes were counted and removed. After the M-type SOD treatment, the number of dead zebrafishes in each experiment group was counted, and MNLC was determined. […] Therefore, the concentration of 2000 μg/mL was selected as the maximum concentration in the evaluation of anti-inflammatory effect of SOD.

[10] = system: TNBS-induced colonitis zebrafish model; experiment: therapeutic efficiency on TNBS-induced colonitis (intestinal lumen area); type: in vivo; details: 48 hours, model control 197660, normal control 130711
Description: (Please refer to A. Jemal, R. Siegel, J. Xu, et al. Ward. Clinicians, 2010, 277-300, and Intestinal Upregulation of Melanin-Concentrating Hormone in TNBS-Induced Enterocolitis in Adult Zebrafish. Plos One, 2013, 8(12):1524-1528).
Image analysis was performed by image analysis software, the area of zebrafish intestinal lumen was calculated, and quantitative analysis was carried out, and the statistical result was expressed with X±SE:
The therapeutic efficiency of the positive control group was calculated by replacing the treatment group in the above formula with the positive control group;

Description for pepsin: Preparation of simulated gastric fluid: in accordance with the standard of the Pharmacopoeia 2010, namely: take dilute hydrochloric acid 16.4 ml (dilute hydrochloric acid: diluted hydrochloric acid 234 ml with water up to 1000 ml. The HCl contained in the solution should be 9.5% to 10.5%), add about 800 ml of water and pepsin 10 g (Sinopharm, 20141209) and shake well, then add water up to 1000 ml.
as §1

Molecule: COc1ccc2c(c1)c(CC(=O)O)c(C)n2C(=O)c1ccc(Cl)cc1 [indometacin, reference compound]
- Inflammation resolution rate (%) ([1]; 60 μM): 72%
- Inflammation resolution rate (%) ([2]; 60 μM): 88*** %
- Inflammation resolution rate (%) ([3]; 60 μM): 62%

Molecule: C[C@]12C=CC(=O)C=C1CC[C@@H]1[C@@H]2C(=O)C[C@@]2(C)[C@H]1CC[C@]2(O)C(=O)CO [prednisone, reference compound]
- intestinal histopathology [4]: intestinal mucosal histology was improved significantly

B1: M-type SOD: mutant high temperature resistant superoxide dismutase, amino acid sequence SEQ ID NO. 4; position 202 mutated from lysine to asparagine versus W-type SOD (protein)
chain: MPYPFKLPDLGYPYEALEPHIDAKTMEIHHQKHHGAYVTNLNAALEKYPYLHGVEVEVLLRHLAALPQDIQTAVRNNGGGHLNHSLFWRLLTPGGAKEPVGELKKAIDEQFGGFQALKEKLTQAAMGRFGSGWAWLVKDPFGKLHVLSTPNQDNPVMEGFTPIVGIDVWEHAYYLKYQNRRADYLQAIWNVLNWDVAEEFFNKA
modifications: amino acid sequence of M-type SOD
notes: position 202 mutated from lysine to asparagine versus W-type SOD
- Inflammation resolution rate (%) ([1]; 15 μg/mL): 0%
- numbers of neutrophils (mean ± SE) ([1]; 15 μg/mL): 17.7 and 17.7 ± 1.4
- Inflammation resolution rate (%) ([1]; 50 μg/mL): 16%
- numbers of neutrophils (mean ± SE) ([1]; 50 μg/mL): 14.9 and 14.9 ± 1.0
- Inflammation resolution rate (%) ([1]; 150 μg/mL): 31%
- Inflammation resolution rate (%) ([1]; 450 μg/mL): 34%
- Inflammation resolution rate (%) ([1]; 1350 μg/mL): 58%
- Inflammation resolution rate (%) ([1]; 2000 μg/mL): 65%
- activity kept [5]: 97%
- resistance against pepsin degradation (pepsin): significantly better than ordinary SOD
- numbers of neutrophils (mean ± SE) ([2]; model control 15.5): 14.9 and 14.9 ± 0.6
- Inflammation resolution rate (%) ([2]; 15 μg/mL): 4%
- Inflammation resolution rate (%) ([2]; 50 μg/mL): 24%
- Inflammation resolution rate (%) ([2]; 150 μg/mL): 47%
- Inflammation resolution rate (%) ([2]; 450 μg/mL): 77%
- Inflammation resolution rate (%) ([2]; 1350 μg/mL): 91%
- Inflammation resolution rate (%) ([2]; 2000 μg/mL): 92%
- intestinal histopathology ([4]; 50 μg/mL and 150 μg/mL): the inflammation of intestinal mucosa was significantly improved
- thermal stability (remaining enzyme activity) [6]: maintained extremely high stability within a wider temperature range
- number of neutrophils (mean ± SE) ([7]; 15 μg/mL): 6.8 ± 0.88
- number of neutrophils (mean ± SE) ([7]; 50 μg/mL): 5.6 ± 0.45
- number of neutrophils (mean ± SE) ([7]; 150 μg/mL): 3.7 ± 0.53
- Death rate (%) (zebrafish [8]; 150 μg/mL): 0%
- Death (tail) (zebrafish [8]; 150 μg/mL): 0 tail
- Death rate (%) (zebrafish [8]; 200 μg/mL): 20%
- Death (tail) (zebrafish [8]; 200 μg/mL): 6 tail
- Death rate (%) (zebrafish [8]; 330 μg/mL): 100%
- Death (tail) (zebrafish [8]; 330 μg/mL): 30 tail
- Death rate (%) (zebrafish [8]; 1000 μg/mL): 100%
- Death (tail) (zebrafish [8]; 1000 μg/mL): 30 tail
- Death rate (%) (zebrafish [8]; 3000 μg/mL): 100%
- Death (tail) (zebrafish [8]; 3000 μg/mL): 30 tail
- MNLC (zebrafish [8]; zebrafish, treatment for 48 hours): 150 µg/mL
- Inflammation resolution rate (%) ([3]; 150 μg/mL): 29%
- Inflammation resolution rate (%) ([3]; 450 μg/mL): 51%
- Inflammation resolution rate (%) ([3]; 1350 μg/mL): 58%
- Inflammation resolution rate (%) ([3]; 2000 μg/mL): 59%
- toxic effects on zebrafish (zebrafish [9]): no toxic effects
- intestinal lumen area (mean ± SE) ([10]; 15 μg/mL in water for fish): 153560 ± 6080
- intestinal lumen area (mean ± SE) ([10]; 50 μg/mL in water for fish): 142595 ± 3167
- intestinal lumen area (mean ± SE) ([10]; 150 μg/mL in water for fish): 141259 ± 5359
